{
  "source": "the nanobody polyreactivity screen of Harvey et al. (2022)",
  "data": [
    {"assay": "yeast display, Sf9 membrane polyspecificity reagent, FACS + sequencing; frameworks hold sequencing errors", "procedure,_shortened": "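Polyreactivity labels are assigned by the sorting gate from which each nanobody was recovered. The gates were low and high (top ~1%), set on anti-HA fluorescence for expression and streptavidin fluorescence for reagent binding. Before sorting, galactose-induced (36–48 hours) yeast display cells were stained for 1 hour at 4 °C with 10% biotinylated, detergent-solubilized Sf9 membrane reagent.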", "values": [
      {"sequence": "QDQHVESGGGLVQAVGSLRLSCAASGRIIVDYAMGWYRQAPGKERDLVATITNGGSTNYADSVKGRFTISRDNAKNTVYLQMNSLKPEDTAVYYCAVDYLLDYYSYIEDYWGQGTQVTVSS", "polyreactivity (PSR sort gate)": "low polyreactivity"},
      {"sequence": "QVQLVESGGGLVQAGGSLRLSCAASGITLALYAMGWYIQAPGKERELVAAISWTGGSTYYADSVKGRFTISRDNAKNTVYLQMNSLKPEDPAVYYCNAVPGPPHSYLGGDYWGQGTQVTVSS", "polyreactivity (PSR sort gate)": "high polyreactivity"},
      {"sequence": "QVQLRESGGGLVQAGGSLRLSCAASGRIFSVYAMGWDRQAPGKERELVAAITRVGSTNYADSVKGRFTISRDNAKNTVYLQMNSLKPEDTAVYYCAARSTGYPTGRMYYWGQGTQVTVSS", "polyreactivity (PSR sort gate)": "high polyreactivity"},
      {"sequence": "QVQLVESGGGLVQAGGSLRLSCAASGGTFGLNAMGWSRLAPGKARELVADIDGRGGSTYYADSVKGRFTISRDNSKNTVYLQMNSRNPEDTAVYYCAARAPFLSVPSELDYWGQCTQVTVSS", "polyreactivity (PSR sort gate)": "low polyreactivity"},
      {"sequence": "QVQLVESAAGLVQAGGSLRLSCAASGLTFTTYDKGWYTQAPRKQRELFAAISRGGSRTYYADSVKGRFTISRDNAKNTVYLQMNSLKPEDTAVYYGNALTGSFTTYSFDFWGQGTQVTVSS", "polyreactivity (PSR sort gate)": "high polyreactivity"},
      {"sequence": "QVQLLESGGGLVQAGASLRLSCAASGSTFSYYAMGWYRQAPGKERELDAAISWRGSSTYYADSVKRRITISRDNANNTVYLQMNSLTPEATAVYYCAAGYPGRVSGYLYGTRATYYYWGQGTQVTVSS", "polyreactivity (PSR sort gate)": "high polyreactivity"},
      {"sequence": "QVKLVESGGGLVQAGGSLRLSCAASGSIFTYTIGWYRQAPGKESELVAVISRSGGRTYYADSVKGRFTISRDNAKNTVYLQMNSLKPEDTAVYYCAAEYYVDYYRTSRSFTRWRYEYWGQGTQVTVSS", "polyreactivity (PSR sort gate)": "high polyreactivity"},
      {"sequence": "QVQLVESGGGLVQAGGSLRLSCAASGRTFTFNAMGWYRQAPGKERELVARIDWRGITYADSVKGRFTISRDNAKNTVYLQMNSLKPEDTAVYYCAAVWLHISYYGKYDYWGQGTQVTVSS", "polyreactivity (PSR sort gate)": "low polyreactivity"},
      {"sequence": "QVQLVESGGGLVQAGGSLRLSCAASGRTFAPYAMGWYRQAPGKERELVAAISWSGGSTYYADSVKGRFTISRDNAKNSVYLQMNSLKPEDTAVYYCAVVVDYDADRYWGYDYWGQGTQVTVSS", "polyreactivity (PSR sort gate)": "high polyreactivity"},
      {"sequence": "QVQLVESGGGLVQAGGSLRLSCAASGSTIEDYAMGWYRQAPGKERELVAAITSGDSTNYADSVKGRFTISRDNAKNTVYLQMNSLKPEDTAVYYCAARLRYSFWYWDDYWGQGTQVTVSS", "polyreactivity (PSR sort gate)": "high polyreactivity"},
      {"sequence": "QVQLVESGVGLVQAGGSLRLSCAASGRIFVKYAMGWYRQAPGQEREFVAAITQGGGRTFYADSVKGRFTSSRDNAKNTVYLQMNSLKPEDTAVYYCAATGRGYGRRYFVVYRYDYWGQGTQVTVSS", "polyreactivity (PSR sort gate)": "high polyreactivity"},
      {"sequence": "QVQLGESGGGLVQAGGSLRLSCAASGGTFSQYAMGWYRHAPGKERELVARISRRGGSTSYADSVKGRFTISRDNAKNTVYLQMNSLKPEDTAVYYCAKDAPSVYPGRFGNTGGYAYDYWGQGTQVTVSS", "polyreactivity (PSR sort gate)": "high polyreactivity"},
      {"sequence": "QVQLVESGGGLFKEGGSLRLSCAASASYFWFNAMGWYRQAPGKEREFGASISRSGGTTYYADSVKGRFTISRDNAKNTVYLQMKSVIPEDTAVYYCNARAFGTGVGTGYFGKDRYDYWGQGSQVTVSS", "polyreactivity (PSR sort gate)": "low polyreactivity"},
      {"sequence": "QVQLVESGGGLVQAGGSLRLSCAASGSTFAVYAMGWYRQAPGKERELVAAITWSGGSTYYADSVKGRFTISRDNAKNTVYFQMNSLKPEDTAVYYCAAAGYYSDMDYWGQGTQVTVSS", "polyreactivity (PSR sort gate)": "low polyreactivity"},
      {"sequence": "QVQLVESGGGLVQAGGSLRLSCAASGIIFRDNAMGWYRQAPGKERELVAAIDSSGGTTYADSVKGRFTISRDNAKNTVYLQTHSLTPEDTAVYYCATEVYWTVSYYGYDYYGGNYYYWGQGTQVTVSS", "polyreactivity (PSR sort gate)": "low polyreactivity"},
      {"sequence": "QVQLVESGGGLVQAGGSLRLSCAASGFTFRWNGMGSYRQAPGKERELVAAISYDGTGTYYADSVKGRFTISRDNAKNTVYLQMNSLKPEDTAVYYCAKTYRDDTSLSGFDSWGQGTQVTVSS", "polyreactivity (PSR sort gate)": "high polyreactivity"},
      {"sequence": "QVQRVESGGGLVQAGGSLRLSCAASGSIVQQYAMGWYRQAPGKERELVAAISYSGGTTYYADSVKGRFTISRDNAKTTVYLQMNSLKPEDTAVYYCAAYYPSGSYDYYWGQGTQVTVSS", "polyreactivity (PSR sort gate)": "low polyreactivity"},
      {"sequence": "QVQLVESGGGLVQAGGSLRLSCAASGITFRWNAMGWYRQAPGKERELVAAITTRGGGTYYADSVKGRFTISRDNAKNTVYLQMNSLKPEDTAVYYCAAKKSRYPYNYWGQGTQVTVSS", "polyreactivity (PSR sort gate)": "high polyreactivity"},
      {"sequence": "QVQLVESGGGLVQAGGSLRLSCAASGFIVYTYAMGWYRPAPGKERELVAAISIGGRTNYADSVKGRFTISRDNAKNTVSLQMNSLKPEDTARYYCAARGYKRIGYWGQGTLVTVSS", "polyreactivity (PSR sort gate)": "high polyreactivity"},
      {"sequence": "QVQLVESGGGLVQAGCSLRLSCAASGFTFAGNAMGWYRQAPGKERELVAAISRRGGSTYYADSVKGRFTISRDNAKNTVYLKMNSLKPEDNAVYYCAAVYRYDYDYWGQGNQVTVSS", "polyreactivity (PSR sort gate)": "high polyreactivity"},
      {"sequence": "QVQLVESGGGLVQAGGSLRLSCAASGIIFINYVMGWYRQAPGKERELVAAISIGGGRTYYADSVKGRFTISRDNAKNTVYLQMNSLKPEDTAVYYCAAEYFYGYKDVYDYWGQGTQVTVSS", "polyreactivity (PSR sort gate)": "high polyreactivity"},
      {"sequence": "QVQLVESGGGLVQAGGSLRLSCAASGTIFSLYAMGWYRQAHGKERELVAAISGSGSSTHYADSVKGRFTISRDNAKNTVYLQMNSLKPEDSAVYYCAATYWTNSYYYWGQGTQVTVSS", "polyreactivity (PSR sort gate)": "low polyreactivity"},
      {"sequence": "QVQLVDSGGGLLQAGGILSLSCAASGSIFPYYAMGWYRQAPGKERELVAVITTVGGSTYYADSVKGRFTISRDNAKYTVYLQMNSLKPEDTAVYYCADEEDYIYFYFSMDYWGQGTQVTVSS", "polyreactivity (PSR sort gate)": "low polyreactivity"},
      {"sequence": "QVQLVESGGGLVQAGGSLSLSCAASGFILDFNSLGWYRQAPGKERELVAAISISGVSTYYADSVKGRFTISRDNAKNTVYLQMHSLKPEDTAVYYGAAAQVAAVYWRPGGYDYWGQGTQVTVSS", "polyreactivity (PSR sort gate)": "low polyreactivity"},
      {"sequence": "QVQLVESGGGLLQAGGSLRLSCAASGRTFETNAMGWNRQAPGKQRELVASINWSGGSTYYADSVKGRFTISRDNAKNSVYLQMNSLKPEDTAVYYCAADHSYWDWWSYYYWGQGTQVTVSW", "polyreactivity (PSR sort gate)": "low polyreactivity"},
      {"sequence": "QVQLVESGGGLVQAGGSLRLSCAASGSTFWFYAMGWYRQAPGTERELVAVISNSGSTYYADSVKGRFTISRDNAKNTVYLQMNSLKPEDTEVYYCNKDGGGDSYWYDYWGQGTQVTVSS", "polyreactivity (PSR sort gate)": "low polyreactivity"},
      {"sequence": "QDQLVESRGGLVQAGGSLRISCAASGSPFYRNAKGWNTQAPGKERELVATISTGGVSTYYADSVKGRFTISRDNAKNTVYLQMNSLKPEDTAVYYCAQRTVYLSNLDYWGQGTQVTVTS", "polyreactivity (PSR sort gate)": "low polyreactivity"},
      {"sequence": "QVQLVESGGGLVQAGGSLRLSCAASGFIFDTYAMGWYRQAPGKERELVAAISWTGTDTYYADSVKGRFTISRDNAKNTVYLQMNSLKPEDTAVYYCATDYGWLYINSIWEYDYWGQGTQVTVSS", "polyreactivity (PSR sort gate)": "high polyreactivity"},
      {"sequence": "QVQLVESGGGLVQAGGSLRLSCAASGSILEGNGMGWYRQAPGKERELVASITRSGGSTYYSDSVKGRFTISRDNAKNTVYLQMNSLKPEDTAVYYCAAKGSTYGLTIRWYPYLHGYNYWGQGTQVTVSS", "polyreactivity (PSR sort gate)": "low polyreactivity"},
      {"sequence": "QFQLVESVGGLFQAGGSLRLSCDASGIIFIGNAMGWYRQAPGKERELVAAISRRGGRTYYADSVKGRFTISRDNAKNTVYLQMNSLKPEDTAVYYCAKRYYSYGKSGYYYWGQGTQVTVSS", "polyreactivity (PSR sort gate)": "high polyreactivity"},
      {"sequence": "QVKLVESGRGLVQAGGSLRLSCAASGITFRSYAMGWYINATGKERELVATLSSSGGNTNYADSVKGRFTISRDNAKNTVYLQMNSLKPEDTAVYYCAAELWRYYYVVPGRYDDWGQGTQVTVSS", "polyreactivity (PSR sort gate)": "high polyreactivity"},
      {"sequence": "QVQLVESGGGLVQAGGSLRLSCAASGNIRNYGLGWYRQAPGKERELVAAITVSGSRTYYADSVKGRFTISRDNAKNTVYLQMNSLKPEDTAVSYCAARGYNTLTRYDYWGQGTQVTVTS", "polyreactivity (PSR sort gate)": "high polyreactivity"},
      {"sequence": "QVQLVESGGGLFQAGGSLRLICAASGITFEYNTMGWYRQAAGKERELVAAITSDGGSTYYADSVKGRFSISRDNAKNTVYLQMNSLKPEDTAVYYFAAVFYDQYYYWGQGTQVTVSS", "polyreactivity (PSR sort gate)": "high polyreactivity"},
      {"sequence": "QVQLVESGGGLVQAGGSLRLSCAASGSIFEAYVMGWYRQAPGKQRELVAAITTGGGSTYYADSVKWRFTISRDNAKNTVYLQMNSLKPEDTAVYYCGKDYWFGYEYWGQGTQVTVSS", "polyreactivity (PSR sort gate)": "low polyreactivity"},
      {"sequence": "QVQLVESAAGLVQAGGSLRLSCAASGFIFHCNAMGWSRQAPGKERELVAAISDTADITHYADSVKGRFTISRDNAKNTVYLQMNSLKPEDTAVYFCNAGSGVQVVWYKPYREYEYWGQGTQVTVSS", "polyreactivity (PSR sort gate)": "low polyreactivity"},
      {"sequence": "QVQLVESGGGLVQAGGSLRLSCAASGFIFATYAMGWYRQAPGKERELVAAINRGGSTYYADSVKGRFTISRDNAKNTVYLQMNSLKPEDTAVYYCAAAKRYPTSTWYGYWGQGTQVTVSS", "polyreactivity (PSR sort gate)": "high polyreactivity"},
      {"sequence": "QVQLVESGGGLVQAGGSLRLSCASSGSTFPRNAMGWYRQAPGKERELVAAITRSGANTHYADSVKGRFTISRDNAKNTVYLQMNSLKPEDTAVYYCAARSFTAYLGYYWGQGTQVTVSS", "polyreactivity (PSR sort gate)": "high polyreactivity"},
      {"sequence": "QVQLVESGGGLVQAGGSLRLSCSASGSTFYVYAMGWYRQAPGKERELVAAITDSGGSTYADSVKGRFTISRDNAKNTVYLQMNSLKPEDTAVYADSTYNWYYYYWGQGTQVTVSS", "polyreactivity (PSR sort gate)": "low polyreactivity"},
      {"sequence": "QVQLVESGGGLVQARGSLRLSCAASGGNISYNAMGRYRQAPGKEREFVASISSSGGRTYYADSVKGRFTISRDNAKNTVYLQMNSLKPEDTAVFYCNADAQVEYGLFGQGWVTSFDYWGEGTQVTVSS", "polyreactivity (PSR sort gate)": "low polyreactivity"},
      {"sequence": "QVQLVESGGGLVQAGGSLRLSCAASGGIFRANALGWYRQAPGKERELVAAIRYSGGGTYYADSVKGRFTISRDNAKNTVYLQMNSLKPEDTAVYYCAARYRGRGYVAYDYWGQGTQVTVSS", "polyreactivity (PSR sort gate)": "high polyreactivity"},
      {"sequence": "QVQLVESGGGLVQAGGSLRLSCAASGFIFGYYAMGWYRQAPGKERELVAAITRSGGSTRYADSVKGRFTISRDKAKNTVYLQMNSLKPEDTAVYYCNAYAPRQLYGYDYWGQGTQVTVSS", "polyreactivity (PSR sort gate)": "high polyreactivity"},
      {"sequence": "QVPLEESGGGLVQAGGSLRLSCAASGSIFMTYSMGWYRKAPGNERELVAAISWRGGSTYYADSVKGRFTISRDNAKNTVYLQMNSMKPVDTAVYYCAADYYRYGYQGSTTEDDYWGQGTLVTVSS", "polyreactivity (PSR sort gate)": "low polyreactivity"},
      {"sequence": "QVQLVESGGGLVQAGVSLRLSCAASGFIYDHNAMGWYRQAPGKERELVAAITRSGGSTYYAYSVKGRFTISRDNAKNTVYLQMNSLKQEDTAVYYCNADAYGTPEFTSYAVRYDYWGQGTQVTVSS", "polyreactivity (PSR sort gate)": "low polyreactivity"}
    ]}
  ]
}
